Test results taken from PMC3070748.

Molecular target: Gemin7 BiFC construct (UniProt Q9H840)
Assay: split reporter

Chain of UniProt Q9H840 (Q9H840 whole entry): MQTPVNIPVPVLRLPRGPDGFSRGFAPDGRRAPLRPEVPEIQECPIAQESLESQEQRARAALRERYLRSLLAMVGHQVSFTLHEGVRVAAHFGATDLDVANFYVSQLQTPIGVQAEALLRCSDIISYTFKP

percent of BiFC-positive cells: 56%
Substance: murine Unrip fused to a Venus fragment (BiFC construct) (from UniProt Q9Z1Z2 1-350) (natural protein)
